Several values for one entry are separate records, joined by “and”; a condition that tells them apart may be missing. Equal values may be shown once.
Details: Aspergillus oryzae (strain ATCC 42149 / RIB 40), 25 °C, Fluorescence, reversible: yes, whole UniProt chain shown

B1: Guanyl-specific ribonuclease T1 wild type, P00651 (protein)
chain: MMYSKLLTLTTLLLPTALALPSLVERACDYTCGSNCYSSSDVSTAQAAGYQLHEDGETVGSNSYPHKYNNYEGFDFSVSSPYYEWPILSSGDVYSGGSPGADRVVFNENNQLAGVITHTGASGNNFVECT
In the case of B1, the denaturant m value (pH 2.92, GdnHCl, formate 30 mM) is reported as 2.89 kcal/mol/M, the “denaturant midpoint (higher = more stable)” value (“denaturant midpoint” for short) (pH 2.92, GdnHCl, formate 30 mM) is reported as 2.78 M and the unfolding free energy (pH 2.92, GdnHCl, formate 30 mM) is reported as 8.04 kcal/mol. The unfolding free energy (pH 2.92, Urea, formate 30 mM) was 6.2 kcal/mol, the denaturant m value (pH 3.02, GdnHCl, formate 30 mM) was 2.89 kcal/mol/M and the “denaturant midpoint” value (pH 3.02, GdnHCl, formate 30 mM) was 1.8 M. The unfolding free energy (pH 3.02, GdnHCl, formate 30 mM) was 5.2 kcal/mol, the unfolding free energy (pH 3.02, Urea, formate 30 mM) was 5.2 kcal/mol and the denaturant m value (pH 6.98, GdnHCl, MOPS 30 mM) was 3.09 kcal/mol/M and 2.58 kcal/mol/M. For the same protein, the “denaturant midpoint” value (pH 6.98, GdnHCl, MOPS 30 mM) was 2.99 M and 2.98 M, the unfolding free energy (pH 6.98, GdnHCl, MOPS 30 mM) was 9.24 kcal/mol and 7.7 kcal/mol and the denaturant m value (pH 9.89, GdnHCl, glycine 30 mM) was 3.27 kcal/mol/M. The “denaturant midpoint” value (pH 9.89, GdnHCl, glycine 30 mM) was 2.57 M, the unfolding free energy (pH 9.89, GdnHCl, glycine 30 mM) was 8.4 kcal/mol and the unfolding free energy (pH 9.89, Urea, glycine 30 mM) was 8.6 kcal/mol. The denaturant m value (pH 9.91, GdnHCl, glycine 30 mM) was 2.58 kcal/mol/M, the “denaturant midpoint” value (pH 9.91, GdnHCl, glycine 30 mM) was 1.36 M and the unfolding free energy (pH 9.91, GdnHCl, glycine 30 mM) was 3.52 kcal/mol.

Reference: FireProtDB (doi:10.1021/bi00462a019)
